Results taken from patent US8822645B2, “Prostaglandin E2 dual variable domain immunoglobulins and uses thereof” (AbbVie Inc., priority 2008, dated 2014).
Values belong to the molecule of their own block, whether it stands above or below them.

Columns and labels:
[1] = Size exclusion chromatography, percent monomer of parent antibodies and DVD-Ig constructs; assay type: physicochemical
Experimental: Antibodies were diluted to 2.5 mg/mL with water and […] is analyzed on a Shimadzu HPLC system using a TSK gel G3000 SWXL column (Tosoh Bioscience, cat#k5539-05k). […] The HPLC system operating conditions are the following: […]

[2] = test system: target antigen; test: BIACORE affinity determination of parent antibodies and DVD-Ig constructs; assay type: binding; details: antigen IL-15, 25° C.
Experimental: The BIACORE assay (Biacore, Inc, Piscataway, N.J.) determines the affinity of antibodies or DVD-Ig with kinetic measurements of on-rate and off-rate constants. […] All chemicals are obtained from Biacore® AB (Uppsala, Sweden) or otherwise from a different source as described in the text. For example, approximately 5000 RU of goat anti-mouse IgG, (Fcγ), fragment specific polyclonal antibody (Pierce Biotechnology Inc, Rockford, Ill.) diluted in 10 mM sodium acetate (pH 4.5) is directly immobilized across a CM5 research grade biosensor chip using a standard amine coupling kit according to manufacturer's instructions and procedures at 25 μg/ml. Unreacted moieties on the biosensor surface are blocked with ethanolamine. Modified carboxymethyl dextran surface in flowcell 2 and 4 is used as a reaction surface. Unmodified carboxymethyl dextran without goat anti-mouse IgG in flow cell 1 and 3 is used as the reference surface. For kinetic analysis, rate equations derived from the 1:1 Langmuir binding model are fitted simultaneously to association and dissociation phases of all eight injections (using global fit analysis) with the use of Biaevaluation 4.0.1 software. Purified antibodies or DVD-Ig are diluted in HEPES-buffered saline for capture across goat anti-mouse IgG specific reaction surfaces. Antibodies or DVD-Ig to be captured as a ligand (25 μg/ml) are injected over reaction matrices at a flow rate of 5 μl/min. The association and dissociation rate constants, kon (M^−1 s^−1) and koff (s^−1) are determined under a continuous flow rate of 25 μl/min. Rate constants are derived by making kinetic binding measurements at different antigen concentrations ranging from 10-200 nM. The equilibrium dissociation constant (M) of the reaction between antibodies or DVD-Igs and the target antigen is then calculated from the kinetic rate constants by the following formula: KD=koff/kon. Binding is recorded as a function of time and kinetic rate constants are calculated. In this assay, on-rates as fast as 10^6 M^−1 s^−1 and off-rates as slow as 10^−6 s^−1 can be measured.

[3] = PGE2-biotinamide ELISA (PGE2 binding); details: PGE2 VD in C-terminal position, read-out: Direct Bind ELISA C-terminal VD EC50
Experimental: (§1) Enzyme linked immunosorbent assays to screen for anti-PGE2 antibodies or anti-PGE2 containing DVD-Ig molecules that bind prostaglandin E2 were performed as follows. ELISA plates (Costar 3369, Corning, N.Y.) were coated with 50 μl of anti-host Fc IgG (Sigma, St. Louis, Mo.) at 2 μg/ml in PBS (Invitrogen Carlsbad, Calif.). Following an overnight incubation at 4° C., the plate was blocked with 200 μl Superblock (Pierce #37535, Rockford, Ill.). The IgG or DVD-Ig containing samples were diluted to 1 μg/ml in Assay Buffer (10% Superblock in PBS containing 0.05% Surfactamps (Pierce #37535, Rockford, Ill.) and incubated on the plate at 50 μl/well for 1 hour at room temperature. Following the incubation, plates were washed four times with TTBS (Tween-Tris Buffered Solution). For PGE2 binding, PGE2-biotinamide (Cayman Chemicals, Ann Arbor, Mich.) was diluted to 30 nM and serially diluted in Assay Buffer. The titration curve was added to each IgG or DVD-Ig sample at a volume of 50 μl/well and incubated for 1 hour at room temperature. The plates were washed as previously described and 50 μl/well of 1:5000 dilution of streptavidin polyhrp40 (Fitzgerald Industries, Concord, Mass.) in Assay Buffer was added and incubated for 45 minutes at room temperature. A final wash step was performed and the plates were developed using a single step TMB system (Sigma #T8665, St. Louis, Mo.) and 2N H2SO4. Plates were read at 450 nm on a Molecular Devices Spectramax plate reader (Sunnyvale, Calif.). EC50 was determined using GraphPad Prism 5 (GraphPad Software, La Jolla, Calif.) (FIG. 2).
as §1, with “ELISA” for “Enzyme linked immunosorbent assays to screen for anti-PGE2 antibodies or anti-PGE2 containing DVD-Ig molecules that bind prostaglandin E2 were performed as follows. ELISA”, “(Invitrogen,” for “(Invitrogen”, “IgG” for “IgG or DVD-Ig”, “Solution).” for “Solution). For PGE2 binding,”, “Calif.).” for “Calif.) (FIG. 2).”

[4] = test system: PGE2 / human EP4 receptor in HEK293 Gα16 cells; test: EP4 bioassay (Ca++ flux, neutralization of PGE2); assay type: cell-based; details: for IC50: EP4 assay
Experimental: The ability of anti-PGE2 antibodies and anti-PGE2 containing DVD-Ig molecules to inhibit the cellular response of PGE2 was determined in a Ca++ flux assay in HEK293 Gα16 cells stably transfected with human EP4 receptor. Cells were plated in black/clear poly-D-lysine plates, (Corning #3667, Corning, N.Y.) and incubated with Ca++-sensitive dye (Molecular Devices) for 90 minutes. Stock PGE2 (in 200 proof ethanol) was diluted with FLIPR buffer (containing 1×HBSS (Invitrogen, Carlsbad, Calif.), 20 mM HEPES (Invitrogen, Carlsbad, Calif.), 0.1% BSA (Sigma, St. Louis, Mo.) and 2.5 mM Probenecid (Sigma, St. Louis, Mo.)). Anti-PGE2 antibodies, DVD-Ig molecules or isotype matched control antibodies were also pre-diluted in FLIPR buffer. 25 μl of PGE2 or pre-incubated PGE2/antibody mixture or pre-incubated PGE2/DVD-Ig molecule mixture was added to the wells pre-plated with cells. A dose response of PGE2 was done by a serial titration of PGE2 and was determined using FLIPR1 or Tetra (Molecular Devices). EC50 was determined using GraphPad Prism 5 (GraftPad Software, La Jolla, Calif.). […] Ca++ flux was monitored using FLIPR1 and data was analyzed using GraphPad Prism 5.
The ability of anti-PGE2 antibodies and anti-PGE2 containing DVD-Ig molecules to inhibit the cellular response of PGE2 was determined in a Ca++ flux assay using stably transfected human EP4 in HEK293 Gα16 cells. Cells were plated in black/clear Poly-D-Lysine plates, (Corning #3667) and incubated with Ca++-sensitive dye (Molecular Devices) for 90 minutes. Stock PGE2 (in 200 proof ethanol) was diluted with FLIPR buffer (containing 1×HBSS, 20 mM HEPES, 0.1% BSA and 2.5 mM Probenecid). Anti-PGE2 antibodies, DVD-Ig molecules or isotype matched control antibodies were also pre-diluted in FLIPR buffer. 25 μl of PGE2 or pre-incubated PGE2/antibody mixture or pre-incubated PGE2/DVD-Ig molecule mixture was added to the wells pre-plated with cells. A dose response of PGE2 was done by a serial titration of PGE2 and was determined using FLIPR1 or Tetra (Molecular Devices). EC50 was determined using GraphPad Prism 5. […] Ca++ flux was monitored using FLIPR1 and data was analyzed using GraphPad Prism 5.

[5] = 3H-PGE2 ELISA (PGE2 binding affinity)
Experimental: Alternatively, prostaglandin binding screen for antibodies or DVD-Ig molecules can be determined using a ^3H-PGE2 ELISA. Plates were coated at 50 μl/well with 5 μg/ml of goat anti-human IgG (Fc) (Thermo Scientific #31170, Hudson, N.H.) or goat anti-mouse IgG (Fc) (Thermo Scientific #31125, Hudson, N.H.) in PBS and incubated overnight at 4° C. The following day plates were flicked and blotted dry. Plates were then blocked with 200 μL/well of Superblock (Thermo Scientific #37515, Hudson, N.H.), for 1 hour at room temperature. Plates were flicked and blotted dry. Monoclonal antibodies were diluted to 0.04 μg/ml in PBST (Abbott Bioresearch Center, Worcester, Mass.)/10% Superblock and 50 uL of each antibody or DVD-Ig was added to each well of the pre-blocked ELISA plate at 2 ng/well and incubated for 1 hour at room temperature. Wells were washed 3 times with PBS+0.1% Tween-20. A serial 3 fold titration of ^3H-PGE2 (Perkin Elmer #NET-428, Waltham, Mass.) was prepared in PBST+10% Superblock. Fifty microliters of the ^3H-PGE2 solution was then added to each well of the plate and incubated for 1 hour at room temperature. Wells were washed 6 times with PBST+10% Superblock and 50 μL of scintillation fluid (Perkin Elmer #6013621, Waltham, Mass.) added to each well. Plates were read using the TopCount reader (Perkin Elmer, Waltham, Mass.) with a 5 minutes count delay. EC50 number was determined using GraphPad Prism 5 (GraphPad Software, La Jolla, Calif.).

EC50 [3]: 1.54 nM
B1: DVD154: DVD-Ig construct listed in Table 4 (antibody)
VH: EVQLVQSGAEVKKPGESLKISCKVSGYFFTTYWIGWVRQMPGKGLEYMGIIYPGDSDTRYSPSFQGQVTISADKSISTAYLQWSSLKASDTAMYYCARGGNWNCFDYWGQGTLVTVSSASTKGPEVQLVQSGAEVKKPGASVKVSCKASGYTFTKYWLGWVRQAPGQGLEWMGDIYPGYDYTHYNEKFKDRVTLTTDTSTSTAYMELRSLRSDDTAVYYCARSDGSSTYWGQGTLVTVSS
VL: EIVLTQSPGTLSLSPGERATLSCRASQSVSSSYLAWYQQKPGQAPRLLIYGASRRATGIPDRFSGSGSGTDFTLTISRLEPEDFAVYYCQRYGSSHTFGQGTKLEISRTVAAPDVLMTQTPLSLPVTPGEPASISCTSSQNIVHSNGNTYLEWYLQKPGQSPQLLIYKVSNRFSGVPDRFSGSGSGTDFTLKISRVEAEDVGVYYCFQVSHVPYTFGGGTKVEIKR
% Monomer (purity) [1]: 88.7% | koff [2]: 0.00198 s⁻¹ | EC50 ([4]; PGE2 VD in C-terminal position, EP4 bioassay, Ca++ flux, read-out: C-terminal VD PGE2 Neutralization EC50): 0.029 nM

Kd [5]: 0.238 nM
B2: 2B5-hSL-8C11: anti-murine TNFα/anti-PGE2 DVD-Ig, human short linker, SEQ ID 106/107 (antibody)
heavy: QVQLQQSGPELVRPGSSVKISCKASGYTFTKYWLGWVKQRPGHGLEWIGDIYPGYDYTHYNEKFKDKATLTVDTSSSTAYMQLSSLTSEDSAIYYCARSDGSSTYWGQGTLVTVSAASTKGPEFQLQQSGPELVKPGASVRISCKASGYSFTDYNMNWVKQSNGKSLEWVGVINPNYGSSTYNQKFKGKATLTVDQSSSTAYMQLNSLTSEDSAVYYCARKWGQLGRGFFDVWGTGTTVTVSS
light: DVLMTQTPLSLPVSLGDQASISCTSSQNIVHSNGNTYLEWYLQRPGQSPKLLIYKVSNRFSGVPDRFSGSGSGTVFTLKISRVEAEDLGVYYCFQVSHVPYTFGGGTKLEIKRTVAAPQIVLSQSPAILSASPGEKVTMTCRASSSVSYMHWFQQKPGSSPKPWIYATSNLASGVPARFSGSGSGTSYSLTISRVEAEDAATYYCQQWSSSPLTFGAGTKLELKR
IC50 [4]: 0.02 nM

Kd [5]: 0.383 nM
B3: 2B5-hLL-8C11: anti-murine TNFα/anti-PGE2 DVD-Ig, human long linker, SEQ ID 108/109 (antibody)
heavy: QVQLQQSGPELVRPGSSVKISCKASGYTFTKYWLGWVKQRPGHGLEWIGDIYPGYDYTHYNEKFKDKATLTVDTSSSTAYMQLSSLTSEDSAIYYCARSDGSSTYWGQGTLVTVSAASTKGPSVFPLAPEFQLQQSGPELVKPGASVRISCKASGYSFTDYNMNWVKQSNGKSLEWVGVINPNYGSSTYNQKFKGKATLTVDQSSSTAYMQLNSLTSEDSAVYYCARKWGQLGRGFFDVWGTGTTVTVSS
light: DVLMTQTPLSLPVSLGDQASISCTSSQNIVHSNGNTYLEWYLQRPGQSPKLLIYKVSNRFSGVPDRFSGSGSGTVFTLKISRVEAEDLGVYYCFQVSHVPYTFGGGTKLEIKRTVAAPSVFIFPPQIVLSQSPAILSASPGEKVTMTCRASSSVSYMHWFQQKPGSSPKPWIYATSNLASGVPARFSGSGSGTSYSLTISRVEAEDAATYYCQQWSSSPLTFGAGTKLELKR
IC50 [4]: 0.064 nM
